Measurements: PMC7219239, “Folding-Based Electrochemical Aptasensor for the Determination of β-Lactoglobulin on Poly-L-Lysine Modified Graphite Electrodes”

Target: T1, beta-lactoglobulin B (β-LG) (Bos taurus? (cow's milk), UniProt P02754 17-178)
T1 sequence: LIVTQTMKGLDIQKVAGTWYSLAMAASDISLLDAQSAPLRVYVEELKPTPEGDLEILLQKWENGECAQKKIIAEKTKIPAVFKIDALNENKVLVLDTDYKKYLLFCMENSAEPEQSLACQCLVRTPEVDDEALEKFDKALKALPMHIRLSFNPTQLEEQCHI
Test: electrochemical folding-based aptasensor (DPV, MB signal-on); PBS-based buffer without MgCl2; 45 min incubation; linear 0.1-10 ng/mL, LOD 0.09 ng/mL; no Kd in the material; Measurement in PBS-based buffer without MgCl2 (wash buffer 0.1 M PBS, 150 mM NaCl, pH 7.4), 45 min; aptamer immobilized at 1 µM in 50 mM Tris, 150 mM NaCl, 2 mM MgCl2, pH 7.4; temperature not stated
Settings: protein: commercial; chain copies: 2; label: methylene blue (3')

B1: anti-β-LG aptamer, thiolated, MB-tagged (ssDNA)
DNA: CGACGATCGGACCGCAGTACCCACCCACCAGCCCCAACATCATGCCCATCCGTGTGTG
modifications: 5'-thiol (HS); 3'-methylene blue
- binding result: binds
